Results from patent publication US20200109196A1 (MOGAM INSTITUTE FOR BIOMEDICAL RESEARCH, published 2020).

Legend:
[1] = target: T1, human CEACAM1 expressed on the cell surface (CEACAM1-Jurkat T cells); HEK293 cells transfected with human … (human, UniProt P13688 35-526); experiment: flow cytometry on CEACAM1-Jurkat T cells, PE goat anti-human F(ab)2, MFI [b]
T1 construct: whole, on cells; also called CCM1
T1 sequence (looked up): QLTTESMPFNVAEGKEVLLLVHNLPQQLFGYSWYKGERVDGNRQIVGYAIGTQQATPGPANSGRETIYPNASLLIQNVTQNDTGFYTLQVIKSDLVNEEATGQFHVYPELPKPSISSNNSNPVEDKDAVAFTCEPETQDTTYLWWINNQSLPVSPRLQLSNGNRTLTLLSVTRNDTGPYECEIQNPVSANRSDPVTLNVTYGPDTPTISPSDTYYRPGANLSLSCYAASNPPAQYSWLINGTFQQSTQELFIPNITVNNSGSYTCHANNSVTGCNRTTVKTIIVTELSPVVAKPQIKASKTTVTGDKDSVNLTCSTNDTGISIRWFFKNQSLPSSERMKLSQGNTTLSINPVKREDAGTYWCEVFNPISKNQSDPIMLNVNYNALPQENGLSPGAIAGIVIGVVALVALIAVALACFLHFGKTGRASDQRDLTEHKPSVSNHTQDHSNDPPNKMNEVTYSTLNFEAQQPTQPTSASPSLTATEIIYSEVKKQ
Method: The CEACAM1-Jurkat T cells prepared above were treated with Fc block solution and incubated for 15 minutes. […] Herein, it is noted that the cell numbers were adjusted to 1×10⁵. The cells incubated with the antibodies were repeatedly subjected to the washing procedure of resuspending the cells in a FACS buffer and centrifuging the solution at 1,500 rpm.
PE-conjugated goat anti-human F(ab)₂; (Sigma; Cat. No. P8047)) was diluted in the FACS buffer at a volume ratio of 1:200, and then added to the cells at 100 μl/well. Cells were resuspended well and incubated at 4° C. for 30 minutes in a dark condition.
The cells incubated with the fixation buffer were repeatedly subjected to the washing procedure of resuspending the cells in a FACS buffer, centrifuging the solution at 1,500 rpm, and discarding the supernatant. The washed cells were resuspended in 200 μl of a FACS buffer, and the mean fluorescence intensities (MFIs) of the PE-labeled cells were monitored by a FACS LSR-Fortessa. All FACS analyses were conducted using the FlowJo software.

[2] = target: T2, CEACAM3 expressed on the surface of HEK293 cells (human, UniProt P40198 35-252); experiment: flow cytometry on transfected HEK293 cells (GFP+ gate), PE goat anti-huIgG4 [a]
T2 construct: whole, on cells; GFP-tagged clone; also called CEACAM3-GFP
T2 sequence (looked up): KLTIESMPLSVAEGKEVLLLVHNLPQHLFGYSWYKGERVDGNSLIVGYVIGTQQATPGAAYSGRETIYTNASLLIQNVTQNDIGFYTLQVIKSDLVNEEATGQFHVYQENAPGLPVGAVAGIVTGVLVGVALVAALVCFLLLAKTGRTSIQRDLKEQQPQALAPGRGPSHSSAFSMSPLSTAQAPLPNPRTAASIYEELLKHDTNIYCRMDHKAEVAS
Method: (§1) HEK293 cells were added with 10 μg of each pEF1α-AcGFP-N1 vector (Clontech, Cat. No. 631973) as a control vector, CEACAM1, CEACAM3, CEACAM5, CEACAM6 and CEACAM8 plasmid vectors, followed by transfection under the condition of pulse voltage 1,100 V, pulse width 20 ms and pulse number 2. After 48 hours of transfection, GFP expression was confirmed by fluorescence microscopy. The cells were detached by treatment with 1 ml of TrypLE Express Solution (ThermoFisher Scientific; Cat. No. 12605010), resuspended in 9 ml of DMEM (Gibco, Cat. No. 11995-065) supplemented with 10% (v/v) FBS, and centrifuged at 1,200 rpm for 5 minutes, to remove the resulting supernatant.
(§2) After washing once with PBS, the cells were resuspended in a FACS buffer to obtain a concentration of 5×10⁵ cells/100 μl. Human Fc Block solution was added to the samples at 1 μl/sample, which were incubated at 4° C. for 10 minutes. The cells were treated with hulgG4 or one of the anti-CEACAM1 clones listed at 1 μg/5×10⁵ cells, which were incubated at 4° C. for 10 minutes. After washing with FACS buffer, the PE-labeled goat-anti-huIgG4 antibodies were diluted at a ratio of 1:200 in a FACS buffer, and added to the samples at 100 μl/sample, which were incubated at 4° C. for 30 minutes. The samples were filled with a FACS buffer up to 200 μl, and then centrifuged at 1,200 rpm for 5 minutes, to remove the resulting supernatant. The fixation buffer (300 μl) was added to resuspend the cells. The cells expressing GFP were selected in the FACS LSR-Fortessa device, and the expression of CEACAM members were evaluated respectively using the antibody specific to each CEACAM member (Table 3). Also, the binding of anti-CEACAM1 antibodies was evaluated by PE fluorescence channel and analyzed using the FlowJo software.

[3] = target: T3, CEACAM6 expressed on the surface of HEK293 cells (human, UniProt P40199 35-320); experiment: as above
T3 construct: whole, on cells; GFP-tagged clone; also called CEACAM6-GFP
T3 sequence (looked up): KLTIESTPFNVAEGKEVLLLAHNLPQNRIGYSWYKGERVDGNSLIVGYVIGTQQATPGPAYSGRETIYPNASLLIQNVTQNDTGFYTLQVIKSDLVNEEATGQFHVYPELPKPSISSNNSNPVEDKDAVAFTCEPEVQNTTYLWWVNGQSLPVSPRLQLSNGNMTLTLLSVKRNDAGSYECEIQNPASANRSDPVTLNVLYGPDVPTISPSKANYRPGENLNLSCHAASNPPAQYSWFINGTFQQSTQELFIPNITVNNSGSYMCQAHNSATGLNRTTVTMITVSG
Method: as §1, §2

[4] = target: T4, CEACAM8 expressed on the surface of HEK293 cells (human, UniProt P31997 35-320); experiment: as above
T4 construct: whole, on cells
T4 sequence (looked up): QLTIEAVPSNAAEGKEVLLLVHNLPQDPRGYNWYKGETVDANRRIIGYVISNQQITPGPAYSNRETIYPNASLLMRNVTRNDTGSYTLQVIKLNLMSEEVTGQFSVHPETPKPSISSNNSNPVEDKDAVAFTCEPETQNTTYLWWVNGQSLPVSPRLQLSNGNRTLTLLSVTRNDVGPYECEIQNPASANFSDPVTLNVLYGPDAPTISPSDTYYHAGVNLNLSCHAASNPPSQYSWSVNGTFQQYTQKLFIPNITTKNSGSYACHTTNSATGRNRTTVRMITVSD
Method: as §1, §2

B1: C25 (antibody, human IgG4 S228P, lambda, V domains shown)
VH: EVQLLESGGGLVQPGGSLRLSCAASGFTFSNYAMSWVRQAPGKGLEWVSVISHGGGSIYYADSVKGRLTISRDNSKNTLYLQMNSLRAEDTAVYYCARDPTKGYAPTFDYWGQGTLVTVSS
VL: QSVLTQPPSASGTPGQRVTISCSGSSSNIGNNYVSWYQQLPGTAPKLLIYADSKRPSGVPDRFSGSKSGTSASLAISGLRSEDEADYYCGAWDASLNGYVFGGGTKLTVLG
notes: Made in ExpiHEK293F cells, protein A purified. huIgG4 is the isotype control and anti-huIgG4 the detection reagent; the isotype is not otherwise stated; also called anti-CEACAM1 antibody C25
[1]
  EC50 (read off the curve): ~0.6 µg/mL
[2]
  binding result: no binding
[3]
  binding result: no binding
[4]
  binding result: no binding

B2: 4R9 (antibody, human IgG4 S228P, lambda, V domains shown)
VH: EVQLLESGGGLVQPGGSLRLSCAASGFTFSNYAMSWVRQAPGKGLEWVSVISHGGGSIYYADSVKGRLTISRDNSKNTLYLQMNSLRAEDTAVYYCARDPTKGYAPTFDYWGQGTLVTVSS
VL: QSVLTQPPSASGTPGQRVTISCSGSSSNIGNNYVSWYQQLPGTAPKLLIYADSRRPSGVPDRFSGSKSGTSASLAISGLRSEDEADYYCGAWDLSLNGYVFGGGTKLTVLG
notes: also called C25-derived clone 4R9
[1]
  EC50 (read off the curve): ~0.05 µg/mL

B3: 4R9_H4-n20 (antibody, human IgG4 S228P, lambda, V domains shown)
VH: EVQLLESGGGLVQPGGSLRLSCAASGFNFSNYAMSWVRQAPGKGLEWVSVISHGGGSIYYADSVKGRLTISRDNSKNTLYLQMNSLRAEDTAVYYCARDPTKGYAPTFDYWGQGTLVTVSS
VL: QSVLTQPPSASGTPGQRVTISCSGSSSNIGNNYVSWYQQLPGTAPKLLIYADSRRPSGVPDRFSGSKSGTSASLAISGLRSEDEADYYCGAWDLSLNGYVFGGGTKLTVLG
notes: also called C25-derived clone 4R9_H4-n20
[1]
  EC50 (read off the curve): ~0.4 µg/mL

B4: 4R26 (antibody, human IgG4 S228P, lambda, V domains shown)
VH: EVQLLESGGGLVQPGGSLRLSCAASGFTFSNYAMSWVRQAPGKGLEWVSVISHGGGSIYYADSVKGRLTISRDNSKNTLYLQMNSLRAEDTAVYYCARDPTKGYAPTFDYWGQGTLVTVSS
VL: QSVLTQPPSASGTPGQRVTISCSGSSSNIGNNYVSWYQQLPGTAPKLLIYADSKRLSGVPDRFSGSKSGTSASLAISGLRSEDEADYYCGAWDGRLNGYVFGGGTKLTVLG
notes: also called C25-derived clone 4R26
[1]
  EC50 (read off the curve): ~0.08 µg/mL

B5: 4R9_H2-2 (antibody, human IgG4 S228P, lambda, V domains shown)
VH: EVQLLESGGGLVQPGGSLRLSCAASGFTFSNYAMSWVRQAPGKGLEWVSVISHGGGSIYYADSVKGRLTISRDNSKNTLYLQMNSLRAEDTAVYYCARDPTKGYAPLFDYWGQGTLVTVSS
VL: QSVLTQPPSASGTPGQRVTISCSGSSSNIGNNYVSWYQQLPGTAPKLLIYADSRRPSGVPDRFSGSKSGTSASLAISGLRSEDEADYYCGAWDLSLNGYVFGGGTKLTVLG
notes: also called C25-derived clone 4R9_H2-2
[1]
  EC50 (read off the curve): ~0.04 µg/mL
